assay: yeast display, Sf9 membrane polyspecificity reagent, FACS + sequencing; frameworks hold sequencing errors
Summary of the method: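 A nanobody's polyreactivity label depends on the gate it was sorted from. Yeast display cells were stained with 10% biotinylated, detergent-solubilized Sf9 membrane reagent for 1 hour at 4 °C, enriched on streptavidin microbeads and sorted by FACS. The low and high (top ~1%) gates were set on anti-HA fluorescence for expression and streptavidin fluorescence for reagent binding.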

Sequence | polyreactivity (PSR sort gate)
QDQLVESGGGLVQAGGRLRLSCAASGRTFYWNAMGWNRQAPGKEREMVAAITRGGSTTYADSVKGRFTISRDNAKNTVYLQMNSLKPEDTAVYYCNKVYSLWPGYRYDYWGQGTQVTVSS | high polyreactivity
QDQLVESGGGLVQAGGRLRLSCAASGSIFLKYSMGWYRQAPGKVRELVAVISQSGGRTYYADSVKGRFTISRDNAKNTVYLQMNILKPEETAVYYCNVDISWLRRKFDYWGQGTQVTVSS | low polyreactivity
QDQLVESGGGLVQAGGSLGLSCAASGLTFSYYAMAWYRQAPGKERELVAAIDYSGGTTYADSVKGRFTISRDNAKNTVYLQMNSLKPEDTAVYYCADAPDGWFASGDEYWGQGTQVTVSS | high polyreactivity
QDQLVESGGGLVQAGGSLPLSCAASGFTYSSYAMGWYRHAPGKERELVATISRSGSTTYYADSVKGRFTISRDNAKNTVYFQMNSLKPEDTAVYYCAKAYYPGGYWGQGTQVTVSS | high polyreactivity
QDQLVESGGGLVQAGGSLRISCAASGFTFDENAMGWYRQAPGINYSGASTYYADSVKGRFTISRDNAKNTVYLQMYSLKPEDTAVYYCAAEVVALMNYWGQGSQVTVSS | low polyreactivity
QDQLVESGGGLVQAGGSLRISCDASGTTFQTYVMGWYRQAPGKERELVAAISSGGSTNYADSVKGRFTISRDNAKNTVYLQMNSLKPEDTAVYYCAKRWPYFRRGKDGYWGQGTQVTVSS | low polyreactivity
QDQLVESGGGLVQAGGSLRLICAASGGIFLVYTMGWYRQAPGKERELVAAITSGGSTKYADSVKGRFTISRDNAKNTVYLQMNSLKPEDTAVYYCAAYRRSWRYPSVRYYKYDYWGQGTQVTVSS | high polyreactivity
QDQLVESGGGLVQAGGSLRLICAASGNTLGYYAMVCYRQATGKERELVATISDDGTTYYADSVKGLFTISRDNAKNSVYLQMNSLKPEDTAVYYCATDGSAQYSMDYWGQGTQVTVSS | low polyreactivity
QDQLVESGGGLVQAGGSLRLICAASGSILSGYAMGWYRQAPGKERELVAAITSGGDTNYADSVKGRFTISRDNAKNTVYLQMNSLKPEDTAVYYCNRRGDFRIAYYDPMDYWGQGTQVTVSS | low polyreactivity
QDQLVESGGGLVQAGGSLRLICAASGSTFDSYAMGWYRQAPGKERELVAAITRSVGSTYYADSVKGRFTISRDNAKYTVYLLMKSLKPEDTAVYYCAARGEWAIYVEFDYWGQGTQVTVSS | low polyreactivity
QDQLVESGGGLVQAGGSLRLICAASGSTFEYNAMGWSRHAPGKERELVASSTNYADSVKGRFTISRDNAKNTVYLQMNSLIPEDTAVYYCAREHGVNRNHDYWGQGTQVTVSS | low polyreactivity
QDQLVESGGGLVQAGGSLRLICASSGSNFESNTMGWYRQAPGKERELLAAINWSGGRTYYADSVKGRFSISRDNAKNTVYLQINSLKPEDTAVYYCATGTYSDYKLGQQLWGRYNYWGQGTQVSVSS | high polyreactivity
QDQLVESGGGLVQAGGSLRLISAASGSTFRKYAMGWYRQAPGKEREFVAASTKRGGSTYYADSVKGRFTISRDNAKNTVYLLLNSLKPEDTAVYYCAAYKQDIGYYWGQGTQVTVSS | high polyreactivity
QDQLVESGGGLVQAGGSLRLSCAASGATYRNNAMGWYRQAPGKERELVAAISRGGGSTYYADSVNGRFTISRDNAKNNVYLQMNSLKPEDTAVYYCARRPTGIYDYWGQGTQVTVSS | high polyreactivity
QDQLVESGGGLVQAGGSLRLSCAASGFIFDTYAMGWYRQAPGKERELVAVISSGGSTYYADSVKGRFTISRDNAKNTVYLQMNSLKPEDTAVYYCAADSGYLGIYGDEYSWGQGTQVTVSS | low polyreactivity
QDQLVESGGGLVQAGGSLRLSCAASGFIFWRNTMGWYRQAPGKERELVAVITRGGSTYYADSVKGRFTISRDNAKNTVYLQMNSLKPEDTAVYYCAALNDYYKTFSGYDYWGQGTQVTVSS | low polyreactivity
QDQLVESGGGLVQAGGSLRLSCAASGFTFAGYAMGWYRQAPGKERELVAAITYSGGRTYYADSVKGRFTISRDNAKNTVYLQMNSLKPEDTAVYYCAARNYRYPGRYVYWGQGTQVTVSS | high polyreactivity
QDQLVESGGGLVQAGGSLRLSCAASGFTFNIYAMGWYRQAPGKERELVAAISWSGGRTNYADSVKGRFTISRDNAKKTVYLQMNSLKPEATAVYYCAVRYKSWYGFNYWGQGTQVTVSS | high polyreactivity
QDQLVESGGGLVQAGGSLRLSCAASGFTFNWKDMGWYRQAPGKERELVAAISGGASTYYADSVKGRFTISRDNAKNTVYLQMNSLKPEDTAVYYCAADLDEWGYLFDYWGQGTQVTVSS | low polyreactivity
QDQLVESGGGLVQAGGSLRLSCAASGFTFRRYAMGWYRQAPGKERELVAAISYTGGITYYADSVKGRFTISRDNAKNTVYLQMNSLKPEDTAVYYCAAESVWTWDYTTAGMDYWGQGTQVTVSS | high polyreactivity
QDQLVESGGGLVQAGGSLRLSCAASGFTFVYNAMGWYRQAPGKERELVAAITSGGNTYYADSVKGRFTISRDNAKNTVYLQMNSLKPEDTAVYYCAADRFTVRMDYWGQGTQVTLSS | high polyreactivity
QDQLVESGGGLVQAGGSLRLSCAASGFTFWEYAMGWYRHAPGKERELVAAISRGTSTYYADSVKGRFTISRDNAKNTVYLQMNSLKPEDTAVYYCASAPSYYPARHGYWGQGTQVTVSS | low polyreactivity

Sequence | polyreactivity (PSR sort gate)
QDQLVESGGGLVQAGGSLRLSCAASGFTFYAYSMGWYRQAPGKERELVAAITYIGSTYYADSVKGRFTISRDNAKNTVYLQMNSLKPEDTAVYYCAAVKVFLGLGYDYWGQGTQVTVSS | low polyreactivity
QDQLVESGGGLVQAGGSLRLSCAASGFTFYLYTMGSYRQAPGKERELVATITSDGGTNYADSVKGRFTISRDNAKNTVYLQMNSLKPEDTAVYFCNAASRRGSRKQAKYDYWGQGTQVTVSS | low polyreactivity
QDQLVESGGGLVQAGGSLRLSCAASGFTFYSYAMGWYRQAPGKERELVAAISYRGGSTYYADSVKGRFTISRDNAKNTVYFQMNSLKPEDTAVYYCAARSPSAAYGSYGVYYWGQGTQVTVSS | high polyreactivity
QDQLVESGGGLVQAGGSLRLSCAASGFTLHVYAMGWYRQAPGKERELVAAISTGGNTNYGDSVKGRFTISRDNAKNTVYLQMNSLKPEDTAVYYCNARYTSRRSRRPYYYWGQGTQVTVSS | high polyreactivity
QDQLVESGGGLVQAGGSLRLSCAASGGIFKSNTMGWDRTAHGKERELVAAITYSDGGTYYADSVKGRFTISRDNAKNTVYLQMNSLTPEDTAVYYCAVDYDTFYWHHYPGEIDHWGQGTQVNVSS | low polyreactivity
QDQLVESGGGLVQAGGSLRLSCAASGGNFPPYDMGWYRQAPGKERDLVATISSDSTNYADSVKGRFTISRDNAKNTVYLQMNSLKPEDSAVYYCAVRFYWAPGGGEYDYWGQGTQVTVSS | low polyreactivity
QDQLVESGGGLVQAGGSLRLSCAASGIIFDDNTMGWYRQAPGKERELVAAISSSGGSTYYADSVKGRFTISRDNAKNTVYLQMNSLKPEDTAVYYCAAAVYYTYPYIVYRNYPEFDYRGQGTQVTVSS | low polyreactivity
QDQLVESGGGLVQAGGSLRLSCAASGIIFRNYAMGWYRQAPGKERELVATIRYRGGRTYADSVKGRFTISRDNAKNTVYLQMNSLKPEDTAVYYCNARRLSDYGDYDYWGQGTQVTVSS | high polyreactivity
QDQLVESGGGLVQAGGSLRLSCAASGITFAYYAMGWYTQAPGKERELVAGISKSGGRTYYADSVKGRFTISRDHAKNTVYLQMNSLKPEDTAVYYCAAQDARRIVYYRYYYWGQGTQVTVSS | high polyreactivity
QDQLVESGGGLVQAGGSLRLSCAASGITFPNYAMGWYGQAPGKERELVAAISRGDSTYYADSVKGRFTISRDNAKNTVYLQMNSLKPEDTAVYYCAARYGRYWSSSGSWTPYGYWGQGTQVTVSS | high polyreactivity
QDQLVESGGGLVQAGGSLRLSCAASGLIFLYPMGGYRQAPGKERELVAAISNGGSTYYADSVKGRFTISRDNAKNTVYLQMNSLKPEDTAVYFCAAKGVRRRYRPDMYYWGQGTQVTVSS | high polyreactivity
QDQLVESGGGLVQAGGSLRLSCAASGLIFTGNVMGWYRQEPGKERELVAAISRSGGRTYYADSVKGRFTISRDNAKNTVYLQMNSLKREDTAVYYCNKVSPERVYYGSYFRYYYWGQGTQVTVSS | high polyreactivity
QDQLVESGGGLVQAGGSLRLSCAASGLIFVRYAMGWYRQAPGKERELVATITWSGGTTYADSVKGRFTISRDNAKKTVYLQMNSLNPEDTAVYYCAVASGPELDYWGQGTQVTVSS | low polyreactivity
QDQLVESGGGLVQAGGSLRLSCAASGLTFAPYAMGWYREAPGKERELVAAISNGGSTYYADSVKGRFTISRDNAKNTVYLQMISLKPEDTAVYYCADRAFYFWRGYDYWGQGTQVTVSS | high polyreactivity
QDQLVESGGGLVQAGGSLRLSCAASGLTFYVNAMGWYRQAPGTERELDAAITWSGGSTHYADSVKGRFTISRDNAKNTVYLQMNSLKPEDTAVYYCGRATFQNSYVAYDYCGQGTQVTVSS | low polyreactivity
QDQLVESGGGLVQAGGSLRLSCAASGRIFAGYTMGWSRQAPGKERELVAAISWSGGRTYYADSVKGRFTISRDNAKNTVYLQMNSLKPEDTAVYYCNIVGWYHNYYYWGQGTQVTVSS | high polyreactivity
QDQLVESGGGLVQAGGSLRLSCAASGRIFDRYAMGWYRQAPGKERELVAAISGRTGSTYYADSVKGRFTISRDNAKNTVYLQMNSLKPEDTAVYYCAKRSYWDGVRYDYWGQGTQVTVSS | high polyreactivity
QDQLVESGGGLVQAGGSLRLSCAASGRIFEGNAMGWYRQAPGKEREFLAAISDGGSTNYADSVKGRFTISRDNAKNTVYLQLNSLKPEETAVYYCNVGANVYMLYFPSRGGVYDYGYWGQGTQVNVSS | low polyreactivity
QDQLVESGGGLVQAGGSLRLSCAASGRIFGWYAMGWYRQAPGKEREFVAAISRGGSTNYADSVKGRFTISRDNAKNTVYLQMNSLKAEDTAVYYCNARKRGSRLRREFDYWGQGTQVTVST | high polyreactivity
QDQLVESGGGLVQAGGSLRLSCAASGRIFHFNAMGWYRQAPGKERELVAAITSSGGSTDYADSVKGRFTISRDTAKNTVYLQMNRLKPEDTADYYCAKRVDAYGWWGRRSGVLSDYWGQGTQVTVSS | low polyreactivity
QDQLVESGGGLVQAGGSLRLSCAASGRIFKVYAMGRYRQAPGKERELVAAITRNTGSTYYADSVKGRFTISRDNAKNTVYLQMNSLKPEDTSVFYCAVDVRSGRAYDYWGQGTQVTVSS | high polyreactivity

From the nanobody polyreactivity screen of Harvey et al. (2022)
